Earlier results, collected in paper PMC4496705.

Legend:
[1] = molecular target: hPrp4 peptide (Homo sapiens) (UniProt O43172); test: ITC
SKIP (Homo sapiens) = SKIP (Homo sapiens) (UniProt Q13573); test: SPR
Sequence of UniProt Q13573 (Q13573 2-536): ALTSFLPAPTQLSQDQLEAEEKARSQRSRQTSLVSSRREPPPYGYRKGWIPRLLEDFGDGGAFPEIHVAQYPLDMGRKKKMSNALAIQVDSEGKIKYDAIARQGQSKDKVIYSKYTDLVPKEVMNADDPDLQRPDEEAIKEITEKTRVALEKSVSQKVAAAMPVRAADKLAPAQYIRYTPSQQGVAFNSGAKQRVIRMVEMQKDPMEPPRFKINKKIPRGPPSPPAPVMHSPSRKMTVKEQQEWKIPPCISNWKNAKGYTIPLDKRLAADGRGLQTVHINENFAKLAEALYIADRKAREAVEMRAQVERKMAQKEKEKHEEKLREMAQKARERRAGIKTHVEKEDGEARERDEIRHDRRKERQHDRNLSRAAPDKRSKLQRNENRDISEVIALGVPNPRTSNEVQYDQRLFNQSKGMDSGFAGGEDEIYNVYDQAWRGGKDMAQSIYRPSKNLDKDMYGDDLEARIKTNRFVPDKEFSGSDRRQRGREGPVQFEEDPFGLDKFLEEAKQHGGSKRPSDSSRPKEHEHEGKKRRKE

Sequence of UniProt O43172 (O43172 whole entry): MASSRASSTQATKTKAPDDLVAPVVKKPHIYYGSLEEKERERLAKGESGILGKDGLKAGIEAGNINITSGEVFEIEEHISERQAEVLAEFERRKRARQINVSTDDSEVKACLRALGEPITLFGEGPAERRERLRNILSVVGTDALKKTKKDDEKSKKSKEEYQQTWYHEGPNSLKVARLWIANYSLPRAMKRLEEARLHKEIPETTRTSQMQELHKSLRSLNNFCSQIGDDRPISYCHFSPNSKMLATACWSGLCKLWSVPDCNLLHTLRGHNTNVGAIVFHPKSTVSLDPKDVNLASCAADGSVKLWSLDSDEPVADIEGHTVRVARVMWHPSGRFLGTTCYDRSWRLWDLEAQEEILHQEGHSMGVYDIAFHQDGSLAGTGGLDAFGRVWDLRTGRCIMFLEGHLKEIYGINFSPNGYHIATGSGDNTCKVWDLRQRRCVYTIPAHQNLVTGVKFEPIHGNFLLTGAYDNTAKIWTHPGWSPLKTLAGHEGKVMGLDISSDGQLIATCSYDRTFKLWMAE

| Substance | Kd [1] | Kd (SKIP (Homo sapiens)) |
| --- | --- | --- |
| PPIH (from UniProt O43447) | 1970 nM | – |
| PPIL1 (from UniProt Q9Y3C6) | – | 125 nM |
